# Measurements taken from patent US20230322857A1, “RECOMBINANTLY ENGINEERED POLYPEPTIDES CAPABLE OF RECYCLING NONCANONICAL COFACTORS” (The Regents of the University of California, priority 2022, published 2023).
# B1: LY-13: phosphite dehydrogenase variant with A155N, E175A, A176F (SEQ ID NO: 6) (protein)
# chain: MLPKLVITHRVHEEILQLLAPHCELITNQTDSTLTREEILRRCRDAQAMMAFMPDRVDADFLQACPELRVIGCALKGFDNFDVDACTARGVWLTFVPDLLTVPTAELAIGLAVGLGRHLRAADAFVRSGKFRGWQPRFYGTGLDNATVGFLGMGNIGLAMADRLQGWGATLQYHAFKALDTQTEQRLGLRQVACSELFASSDFILLALPLNADTLHLVNAELLALVRPGALLVNPCRGSVVDEAAVLAALERGQLGGYAADVFEMEDWARADRPQQIDPALLAHPNTLFTPHIGSAVRAVRLEIERCAAQNILQALAGERPINAVNRLPKANPAAD
# Experiments:
# [1] = TS-PTDH total turnover number determination (NMN(H) cycling with XenA, KIP to levodione); type: biochemical; conditions: averaged over the 16-day reaction
# Description: TS-PTDH Total Turnover Number Determination. Reactions to determine the TTN of TS-PTDH LY-13 (see FIG. 10B) were performed at 1 mL volumes in 2 mL glass vials secured with a PTFE-lined screw cap. Reactions were incubated without shaking at 30° C. Reaction buffer was comprised of 200 mM MOPS at pH 7.5, 100 mM sodium phosphite, 6 mM NMN^+, and 33 mM ketoisophorone (KIP). To initiate the reaction, purified TS-PTDH LY-13 and XenA were spiked into the reaction mixture to a final concentration of 0.25 μM and 18.8 μM, respectively. The reactions were sampled intermittently by removing 50 μL of reaction mixture and mixing with 100 μL of ethyl acetate containing 200 mg/L1-octanol. Samples were vortexed, centrifuged, and the ethyl acetate fraction was transferred to a GC vial for GC-FID analysis. GC-FID analysis for KIP biotransformation efficiency was performed on an Agilent 6850 GD using an Agilent DB-WAX column (30 m×0.56 mm×1 μm). Helium was used as a carrier gas. The inlet and detector were held at 250 and 260° C., respectively. 5 μL of sample was injected with a 2:1 split ratio. […] TTN was calculated by the moles of levodione produced divided by the moles of LY-13 supplied to the reaction system. Total turnover frequency was determined by dividing TTN by the total reaction time of 384 h. Levodione concentration was determined by correlating sample response to a standard curve of known values.
# [2] = BNA(H)-mediated PTDH biotransformation with TsOYE; type: biochemical
# Description: BNA(H)-Mediated PTDH Biotransformation. Reactions with BNA^+, see FIG. 10D, contained 100 mM MOPS-NaOH at pH 7.6, 10 mM KIP, 100 mM sodium phosphite, and 2% v/v DMSO. BNA^+Cl^−, prepared by refluxing equimolar amounts of nicotinamide and benzyl chloride in acetonitrile overnight, followed by precipitation with diethyl ether on ice was supplied to the reactions at final concentrations of 0, 5, 10, or 20 mM. Reactions were initiated by spiking TsOYE and the appropriate TS-PTDH variant to a final concentration of 10 μM, each. Reaction mixtures were incubated at 30° C. on a Thermomixer C (Eppendorf) with shaking at 900 rpm for 24 h, extracted with 500 μL ethyl acetate containing 5 mM n-dodecane, and analyzed by GC-FID. The cycling system with no BNA was used to determine the background activity of the cycling systems. This value was subtracted from the final levodione concentrations in the 5-, 10-, and 20-mM samples to determine the BNA(H)^− specific levodione production. Concentrations of levodione product were determined using a calibration line (0-10 mM, 6 levels, using n-dodecane as internal standard). The y-intercept of the calibration line was forced through 0.
# For BNA(H)-mediated reactions, gas chromatography analyses were performed on a GC-2010 (Shimadzu, Japan) equipped with an AOC-20i auto injector and a flame ionization detector (FID), using a CP-Sil 5 column (25 m×0.25 mm×[…]). 1 μL of sample was injected with a split ratio of 100:1 and injector at 340° C. The FID was maintained at 360° C. Nitrogen was used as the carrier gas, with a linear velocity of 30 cm/s. The oven was held at 135° C. for 1 min, ramped at 15° C./min to 215° C., then 30° C./min to 345° C., and held at 345° C. for 1 min.
# Expression and Purification of Proteins for BNA(H)-Mediated Biotransformation Reactions. E. coli BL21(DE3) strains were transformed with the plasmids containing the TS-PTDH variants and grown on LB-agar plates containing ampicillin at 37° C. overnight. An overnight culture, 15 mL LB supplemented with ampicillin, was inoculated with a single colony, and grown at 37° C., 170 rpm overnight. 2 L baffled shake-flasks with 250 mL of 2×YT media containing 200 μg/mL ampicillin, were inoculated with the overnight culture, grown at 37° C., 170 rpm until OD600 of ˜1.0, induced with IPTG (0.5 mM), and grown at 30° C. and 170 rpm for 24 h. Cells were harvested by centrifugation at 18,000×g, 4° C., 10 min and stored at −20° C. until purification.
# The pellet was resuspended in four volumes loading buffer (50 mM sodium phosphate, 300 mM sodium chloride, 10 mM imidazole, pH 7.7), and lysed on ice by sonication (Branson sonifier 250; 15 min total, 40% duty cycle, output control 3.5, 2 mm tip). The lysate was clarified (21,000×g, 4° C., 30 min followed by 0.2 μm filtration), and loaded (1 mL/min) onto a Nickel-HisTrap FF crude (1 mL) column, washed with loading buffer (12 column volumes, CV), followed by a step with 10% elution buffer (loading buffer containing 250 mM imidazole; 12 CV). The protein was then eluted with 100% elution buffer and collected in fractions of 0.5 mL. Fractions containing protein were combined and dialyzed against ice-cold dialysis buffer (50 mM sodium phosphate, pH 7.7, 800 mL); the buffer was renewed after the first 2 h of dialysis. Following the dialysis, the protein was mixed with glycerol (20% v/v final concentration). Enzyme concentrations were estimated by the absorbance at 280 nm (non-denatured protein), using predicted extinction coefficients (wild type and LY-13: 26470, LY-7: […]; web.expasy.org/protparam/). The protein was aliquoted, flash frozen in liquid nitrogen, and stored at −80° C. until use. […]
molecule,measurement,setting,value
B1,Total Turnover Frequency,[1],~117 turnovers per hour
same,activity / cycling with BNA^+ compared to wild type,[2],enhanced activity for BNA^+ reduction
same,response of biotransformation efficiency to BNA^+ concentration,"[2]; 0, 5, 10, or 20 mM BNA^+",cofactor dose-dependent response
same,utilization of the BNA^+ pool relative to the wild type protein,"[2]; 20 mM BNA^+ supplementation, TsOYE, 24 h",improved utilization of the BNA^+ pool
